# Assay results reported in the DeepSol protein solubility set.
# Test: soluble on expression in E. coli; label from the status in PepcDB or PDB records
row,Sequence,soluble on expression in E. coli
1,GPGSMTSASKKSTEENSEEVECTNSSRKRRMRQRERNIYISECHGIKELSSLVRRGFQQIMTARGLFISGCPDLVKLDDGTSGEEEGGEYYRQLEEVQVSRCPRLTDLSGLGKCKYLKVVDISDCRKLENIGELKSCRTLEKLALSRCTGLVDVNLRGFGKLLSFDIFKCANLTKICGLFGCPILETLTVEECGDVKEMEVRTIRGRVETLRIAGKRAMENVGFLCLFTNMKKLALCGCVGTVAEVLGEEAGGLPRLKWLELIGIRMERQMKDKPGNGVAATEEGNNAKRVLPMIVQNE,not soluble
2,MGSDKIHHHHHHMNTLQRRKTHQVRIDHITVGSEAPVVIQSMTNTDTADAKATALQIKELSDAGSEMVRITVNSPEAASKVAEIRRRLDDMGYATPLIGDFHFNGERLLAEFPECGKALSKYRINPGNVGKGVKGDEKFAFMIRTAAENDKAVRIGVNWGSLDQSLAKRMMDANLASSAPKPPEEVTKEALIVSALESAEKAVLLGLPEDKIILSCKVSAVQDLIQVYRELGSRCAYPLHLGLTEAGMGSKGIVASTAALSVLLQEGIGDTIRISLTPEPGSPRTQEVVVGQEILQTMGLRSFTPMVTACPGCGRTTSTVFQELAQDVQNYLRQKMSIWRTLYPGVESLNVAVMGCVVNGPGESKLADIGISLPGTGETPVAPVYVDGERKVTLKGDNIATEFLAIVEEYVKTNYGENGSKRNQNKIIPIQSL,not soluble
3,MGSDKIHHHHHHMWTPCGRADGNANSPRQSQFALDDLIDIPTDFSLYSTALKKFSQGMERPMYRNFRIVPNIIFGRGSFNQLDDVLKDRRVTADSWMVFVVDDVFTGKPLEGRFPLRGRDLLLWVNVDDEPKTRYIDELVARIRAYSPTAPAGIAGIGGGSAMDIAKAVSLMLNNPGSSADYQGWDLIKNPAVYHVAVPTLAGTGAEISRTTILTGPEKKLGINSDYTLYDQILLDPELLAGVPKNQWFYTGMDCYIHDVESLNGTFINEFSKAYGEKSRDLCREVFLDDSPAKDDKLMMASYFGGMSIAYSQVGACHALSYGLSYVLGIHHGVGCCIAFDQLEEIYPEGVQEFRQMMEKHDIPLPRNLTKDLDSASMEKMVTTALNLVPLWENCLGPDWANIMTRERAMELYKKM,not soluble
4,MSSSSESDSEGERKLPLSYRRKRRRDSSSTTNSEVSDNDRKKRQNEKRRSRESSKMKHQKTAKRDKPMWKEEGEISCDSESDVCNSSSSNNRSRCRDRRRRTDYGRRRHRNSDSRSHERWSTRRRQTTPEGNFRCDECGCNHYTLKGLIHHEMNDHNLNAKCHLCQKSFENKKTFREHCELDHTPEVVRCVFCKSSFDQPLEMNDEQWAHFFAHIYGEILYSRLADYEDRALNTA,not soluble
5,EMIHHAKNQLIMCSPYFIPDESMLEAVTSACYRGVRVELLVSEQADQFVVDHAQSSYYQTLLEAGVHIYRYHAPAVLHSKFLIADPHGVAVSVMGSSNMDMRSFGLNYEVSLMTLQGQLTHLLYELAETYKENSTELTLEEWNQRGIVRRYVDNIMKLTSALQ,not soluble
6,MGFLERIKKLFSKEEEKQEESILSNPLERLKKGDIIEIDGETWEVTDVALYDYGASKEKEWEIRSASRRGFLSLEEGKIYFFEEIDPEELEPDPGEHFRKYGKPPEYVTYKGKRYRLKYAGKAKYIKNLESYPVTIWEFRSEDGEMIDLEIWDEYEIEAYKGRELQEWEIESILPR,not soluble
7,MAPPNGTTNGETEVATQGSYTAVSTGRKTTMHRLIEEHGSVLMPGVQDALSAAVVEKTGFHAAFVSGYSVSAAMLGLPDFGLLTTTEVVEATRRITAAAPNLCVVVDGDTGGGGPLNVQRFIRELISAGAKGVFLEDQVWPKKCGHMRGKAVVPAEEHALKIAAAREAIGDSDFFLVARTDARAPHGLEEGIRRANLYKEAGADATFVEAPANVDELKEVSAKTKGLRIANMIEGGKTPLHTPEEFKEMGFHLIAHSLTAVYATARALVNIMKILKEKGTTRDDLDQMATFSEFNELISLESWYEMESKFKNFTPKAT,soluble
8,MNTKLTKIISGLFVATAAFQTASAGNITDIKVSSLPNKQKIVKVSFDKEIVNPTGFVTSSPARIALDFEQTGISMDQQVLEYADPLLSKISAAQNSSRARLVLNLNKPGQYNTEVRGNKVWIFINESDDTVSAPARPAVKAAPAAPAKQQAAAPFTESVVSVSAPFSPAKQQAAASAKQTNIDFRKDGKNAGIIELAALGFAGQPDISQQHDHIIVTLKNHTLPTALQRSLDVADFKTPVQKVTLKRLNNDTQLIITTTGNWELVNKSAAPGYFTFQVLPKKQNLESGGVNNAPKTFTGRKISLDFQDVEIRTILQILAKESGMNIVASDSVSGKMTLSLKDVPWDQALDLVMQARNLDMRQQGNIVNIAPRDELLAKDKAFLQAEKDIADLGALYSQNFQLKYKNVEEFRSILRLDNADTTGNRNTLVSGRGSVLIDPATNTLIVTDTRSVIEKFRKLIDELDVPAQQVMIEARIVEAADGFSRDLGVKFGATGRKKLKNETSAFGWGVNSGFGGGDKWEAQTKINLPVAAAANSISLVRAISSGALNLELSASESLSKTKTLANPRVLTQNRKEAKIESGYEIPFTVTTASGGGNSTNTELKKAVLGLTVTPNITPDGQIIMTVKINKDSPAQCASGNNTILCISTKSLNTQAMVENGGTLIVGGIYEENNGNTLTKVPLLGDIPVIGNLFKTRGKKTDRRELLIFITPRIIDTAGNSLRY,not soluble
9,MAHHHHHHMNFIKAEEKDKCAEEQGVKLFYLKSCKEKEYELHMDVCQAIVEDCPLLEVYVVSRGDGSSESGAFELYDNGQLIKKFTNCNVSTVTSFIRKYAQKGGSSPMEATQSGELNSTGKTDTVKKIEHLIGSNKIILFMKGSKTFPQCKFSNAVVFMLNSCKVKYTTYDILQDEDVRSELKIYSNWPTYPQLYINAELIGGHDIIKSMYDSGELRDVVPQDCFEG,soluble
10,MAHHHHHHMRASTPPLYQRQPEGLAPSYNTGLPLAMPDVPTLRIPQHLSATSHAMPPTAAAQGEFVMAATAPRLGSLETSTRATNPAPFITQFPAAQAPNLHGYVSASPRTSGTGTETSASDYFRYAANLMRNTLPPPMTELAALEEEEKSLKREEEELRPQIIELERMREQLEEQTQKVAVELMQMVVLEQQYYVEPIVDYTAQIKNAEVQCVHLASRVEEAKHSLEELQRQHQSYDAVMEEKERLKKETCAVRERFATLENRRRLCMLQSEALFDVESRRGEEAASQAEETENQLMEMRNNEPLLGIKRSRRSSRSMSRGVSFAQKSIVLDTGSDGDDDGYARSTRHTGDTVSGLTQRGSWNSAGAEDEESEQDCDRDDICGISGQSVRYSLNDTKRVQLVVPAV,not soluble
11,MGSDKIHHHHHHMRATLKIAEPPVVSPSEDELRELENLYCSHGDTVHYTDKPKFFEGCEGSFVYDASQTPFLDLQMWYSAVNFGYRNERLNNAAHRQLDQLPQVASQYLHREKVELAALIARDAEQKFGHKGRVHFNVGGSQAVEDSLKLVRNFTGGKSLMFAFEGGYHGRTLGASAITSSYRYRRRYGHFSDRAQFIEFPYHFRGPKGMSKEEYGEVCVQKFARLFESEYNGVWDPKAGKSEYAAFYVEPIQGTGGYVIPPMNFFTGLKKVLDDHGILLVVDEIQMGVYRTGKLWSIEHFGVSPDVLVFGKAITNGLNPLSGIWAREEMINPTIFPPGSTHSTFASNPMGTAVALETMKMVGEGDFGASVMEKGARFLDGLKVLEKRHAIVGDVDGLGLALRMEICKEDGFTPDKATLDWMSDEGMKGDMVVDGKTYGLVLDVGGYHKNVITLAPNLMISNSEIDLALTLLDQLLTRAARR,not soluble
12,MTARIYKPAKNAMQSGTAKTREWQLDYEPETPRTIEPLMGWTSSSDMQQQVSLRFHTRDEAVAYCEREGIPYQLIEPKEPVRRRAAYADNFAFRRPEPWTHLEHHHHHH,not soluble
13,MKTRISSSRVRFSRYYLRIRESLISIPSRKNQFRFIRKNRFALQASFRSFTENSLTLSFMLLRRSPMKQSRTFLIF,not soluble
14,MSFKVISTGPQAIFQDRGRFGFASAGVGTSGSFDRLSAARANHALGNDPNATVVEILLGGFEVEALHTTSIVFTGTEAEVMVRTAGGQSKNATTNTIIDVAAGERIRVEPATYGMRAYFAARGGFAVEKTLGSASTDLISHMGPRPIEPGDVIDVATDIADSQWWPKLRQLPTLWKRMPTETLTVIRGPRDKWFTQESLNNFFTQVFTVSNDSNRIGLRMHSSEPIQHRVEGELKSEGMVRGSIQIPPGGNPVVFGPDHPVTGGYPVIAVLTSRSCDRSAQLLPGDKVRFKLL,not soluble
15,MGSDKIHHHHHHMTKLRIAVQGCCHGQLNQIYKEVSRIHAKTPIDLLIILGDFQSIRDGQDFKSIAIPPKYQRLGDFISYYNNEIEAPVPTIFIGGNHESMRHLMLLPHGGYVAKNIFYMGYSNVIWFKGIRIGSLSGIWKEWDFNKQRPDWNDLENNNWKANIRNLYHVRISDIAPLFMIKHRIDIMLSHDWPNGVVYHGDTKHLLKLKPFFEQDIKEGKLGSPVTWQLLRDLRPQWWLSAHLHVRFMASIKHNKRSHEPPNKSTSKTKKNNNEIDLDLSSDEDERSGIMNCQEENEYDSKYGETRFLALDKCLPRRRWLEILEIEPDTSHASWKDENHRMFWDPEFINNLVICQKNKNLLSNKPFNSVNWIELSQSNREEGRDIDWENYAIPAYTLDIQKDEVRQTKAFISKFMT,not soluble
16,MGSDKIHHHHHHMFERDNREDEAAELVTLAAKLKALMKPDVARRVEPDLEALLEAEGLAMRPGPRPMIDTDLVQELRQAMITCSKVKLRYRNRRTRQANERIVHPYAFLHGHRNYLIAWHEHPKANKVALFALPHIEAVDATGEPFVRDPGFQLQDFAARSFGLFQDEPFQTAWKFAPDAADDAAEFLFHPSQAQERLPDGSLIVRFVAASELEMAWHLYAWGDKVEVLEPQKLAEMVNPGRVAWPALP,not soluble
17,RIPVVGITGSKGMTTIARFVASLLTLSGRRTGLACSSGLYLDHRKIDHGNCANHKSARRILMNRTVEAAVFENGFDTMLEEGLPYDSCQVGIVTRIEPALHFAHQWIDTSEQVFKVLRTQVDVVSPTGGKREGDILPEIILPTGAAILNAQDPMLVQMADLCQGEVIYISCDPTLPVISVHRQEGTGPTRGKRAVTVRNWEILLIDGTAETILIRLDELQAKTGNHPVETAHLLAGVGAGWALGMSPDLIRTGLITFLQHQEKQSIVYQTF,not soluble
18,MGSDKIHHHHHHMINKELTAATFMEVIAEDNRFIYDGIDSNFEPELVFLEFFEALLSFAFICVTDQMTKSYTNVPADDVSGNKHETIYTILNQDAQNKSPSAVMSHESDAAHSDSARSSSSKLELSPDVNKIRKSEPKIKKSVSHERVSKMNFKLTGKGITFFSSESKKYERPKDDREEEFNTWVNNTYVFFVNTLFHAYKREEAIKEKIRADRLRSTAQAQQRKMEDDELEARLNIFILREEEAKRHDYEVDITVLKEPADVSSSHLILDPPKEDVTVSPSSKTITSKKKKK,not soluble
19,MNKPTLGIDLDTTLNTLDREWVKRYNEIYKDKLLPSDIKGWDIENYVKPECGKKIYDILKEPHFFRNLGVQPFAETALEELTSIFNIYIVSATHYKVCEDKGNWIKEKFPFISYQNIIFCHNKGLVHLDILIDDNPLNLENFKGNKILFDAHHNKSENRFVRARDWYEAKALCESLKDFL,not soluble
